Data: paper PMC10030467 (Nature Communications, 2023)
Changes are numbered by the printed parent chain. Names and notes keep the numbering of the source. Values joined by “and” are separate entries in the source; they are usually repeats but may differ in a detail not shown here. Equal entries are not always repeated.

Experiments:
[1] = target: KAP1/TRIM28 (Homo sapiens) (UniProt Q13263); settings: cited from earlier work
[2] = target: the molecule itself; assay: AUC + SEC-MALS; deletion constructs of TRIM72 in solution; 20 mM Tris-HCl pH 8.0, 200 mM NaCl, 0.3 mM TCEP
[3] = target: the molecule itself; assay: SEC-MALS; point mutants, 100 μL at 1 mg/mL; Superdex 200 increase, 20 mM Tris-HCl pH 8.0, 200 mM NaCl, 0.3 mM TCEP
[4] = target: the molecule itself; assay: cross-linking; disulfide bonds by oxidation: about 20 μM protein with 0-0.3% H2O2, 4 °C, 30 min, 20 mM Tris-HCl pH 8.0, 200 mM NaCl, 0.3 mM TCEP; non-reducing PAGE
[5] = target: the molecule itself; assay: AUC; sedimentation velocity, increasing protein concentration (1, 2, 10, 20, 50 μM); 20 mM Tris-HCl pH 8.0, 200 mM NaCl, 0.3 mM TCEP, 20 °C; SEDPHAT self-association; dimers to tetramer (and hexamer)
[6] = target: the molecule itself; assay: AUC; sedimentation velocity, lower protein concentrations of the series 1-50 μM; 20 mM Tris-HCl pH 8.0, 200 mM NaCl, 0.3 mM TCEP, 20 °C; monomers to dimer

## KAP1/TRIM28 (from UniProt Q13263)
[1]
  Kd: 10 µM

B1: TRIM72^ΔSPRY (2-287) (domain or fragment, human, UniProt Q6ZMU5-1 2-287, looked up)
chain: SAAPGLLHQELSCPLCLQLFDAPVTAECGHSFCRACLGRVAGEPAADGTVLCPCCQAPTRPQALSTNLQLARLVEGLAQVPQGHCEEHLDPLSIYCEQDRALVCGVCASLGSHRGHRLLPAAEAHARLKTQLPQQKLQLQEACMRKEKSVAVLEHQLVEVEETVRQFRGAVGEQLGKMRVFLAALEGSLDREAERVRGEAGVALRRELGSLNSYLEQLRQMEKVLEEVADKPQTEFLMKYCLVTSRLQKILAESPPPARLDIQLPIISDDFKFQVWRKMFRALMPA
notes: TRIM72, human, residues 2-287 (RING, B-box, coiled-coil); source: E. coli Rosetta (DE3), purified; not shown: His-Sumo, N-terminal, cleaved
[2]
  stoichiometry N: 2

B2: TRIM72^ΔRING (84-477) (domain or fragment, human, UniProt Q6ZMU5-1 84-477, looked up)
chain: GHCEEHLDPLSIYCEQDRALVCGVCASLGSHRGHRLLPAAEAHARLKTQLPQQKLQLQEACMRKEKSVAVLEHQLVEVEETVRQFRGAVGEQLGKMRVFLAALEGSLDREAERVRGEAGVALRRELGSLNSYLEQLRQMEKVLEEVADKPQTEFLMKYCLVTSRLQKILAESPPPARLDIQLPIISDDFKFQVWRKMFRALMPALEELTFDPSSAHPSLVVSSSGRRVECSEQKAPPAGEDPRQFDKAVAVVAHQQLSEGEHYWEVDVGDKPRWALGVIAAEAPRRGRLHAVPSQGLWLLGLREGKILEAHVEAKEPRALRSPERRPTRIGLYLSFGDGVLSFYDASDADALVPLFAFHERLPRPVYPFFDVCWHDKGKNAQPLLLVGPEGAEA
notes: TRIM72, human, residues 84-477 (B-box, coiled-coil, SPRY); also called RING deletion; source: E. coli Rosetta (DE3), purified; not shown: His-Sumo, N-terminal, cleaved
[2]
  stoichiometry N: 2

B3: TRIM72 F272A (natural protein, human, UniProt Q6ZMU5-1 2-477, looked up)
chain: SAAPGLLHQELSCPLCLQLFDAPVTAECGHSFCRACLGRVAGEPAADGTVLCPCCQAPTRPQALSTNLQLARLVEGLAQVPQGHCEEHLDPLSIYCEQDRALVCGVCASLGSHRGHRLLPAAEAHARLKTQLPQQKLQLQEACMRKEKSVAVLEHQLVEVEETVRQFRGAVGEQLGKMRVFLAALEGSLDREAERVRGEAGVALRRELGSLNSYLEQLRQMEKVLEEVADKPQTEFLMKYCLVTSRLQKILAESPPPARLDIQLPIISDDAKFQVWRKMFRALMPALEELTFDPSSAHPSLVVSSSGRRVECSEQKAPPAGEDPRQFDKAVAVVAHQQLSEGEHYWEVDVGDKPRWALGVIAAEAPRRGRLHAVPSQGLWLLGLREGKILEAHVEAKEPRALRSPERRPTRIGLYLSFGDGVLSFYDASDADALVPLFAFHERLPRPVYPFFDVCWHDKGKNAQPLLLVGPEGAEA
notes: TRIM72, human, residues 2-477, point mutant; source: E. coli Rosetta (DE3), purified; not shown: His-Sumo, N-terminal, cleaved
[3]
  stoichiometry N: 2

B4: TRIM72 R220E (natural protein, human, UniProt Q6ZMU5-1 2-477, looked up)
chain: B3 chain with R219E, A271F
notes: as for B3
[3]
  stoichiometry N: 2

B5: TRIM72 R169A (natural protein, human, UniProt Q6ZMU5-1 2-477, looked up)
chain: B3 chain with R168A, A271F
notes: as for B3
[3]
  stoichiometry N: 2

B6: TRIM72 R180A (natural protein, human, UniProt Q6ZMU5-1 2-477, looked up)
chain: B3 chain with R179A, A271F
notes: as for B3
[3]
  stoichiometry N: 2

B7: TRIM72 C144S (natural protein, human, UniProt Q6ZMU5-1 2-477, looked up)
chain: B3 chain with C143S, A271F
notes: as for B3
[4]
  binding result: binds

B8: TRIM72 R220A (natural protein, human, UniProt Q6ZMU5-1 2-477, looked up)
chain: B3 chain with R219A, A271F
notes: as for B3
[3]
  stoichiometry N: 2

B9: full-length human TRIM72 protein (2-477) (natural protein, UniProt Q6ZMU5-1 2-477, looked up)
chain: B3 chain with A271F
notes: TRIM72 (MG53), human, residues 2-477; open reading frame of GenBank NM_001008274.4; A dimer in solution at low concentration; the RING domain is not seen in the crystal structure although the full-length protein was crystallised; also called MG53; Tripartite Motif Protein 72; source: E. coli Rosetta (DE3), purified (nickel column, Source Q, Superdex 200 increase); not shown: His-Sumo, N-terminal, …
[5]
  Kd: ~0.78 mM
  stoichiometry N: 4 and 6
[6]
  stoichiometry N: 2

B10: TRIM72 R198E (natural protein, human, UniProt Q6ZMU5-1 2-477, looked up)
chain: B3 chain with R197E, A271F
notes: as for B3
[3]
  stoichiometry N: 2

B11: TRIM72 R180E (natural protein, human, UniProt Q6ZMU5-1 2-477, looked up)
chain: B3 chain with R179E, A271F
notes: as for B3
[3]
  stoichiometry N: 2

B12: TRIM72 I95A (natural protein, human, UniProt Q6ZMU5-1 2-477, looked up)
chain: B3 chain with I94A, A271F
notes: TRIM72, human, residues 2-477, point mutant in the B-box; also called I95A mutant; source: E. coli Rosetta (DE3), purified; not shown: His-Sumo, N-terminal, cleaved
[5]
  Kd: ~2.2 mM

B13: TRIM72 R169E (natural protein, human, UniProt Q6ZMU5-1 2-477, looked up)
chain: B3 chain with R168E, A271F
notes: as for B3
[3]
  stoichiometry N: 2

B14: TRIM72 R198A (natural protein, human, UniProt Q6ZMU5-1 2-477, looked up)
chain: B3 chain with R197A, A271F
notes: as for B3
[3]
  stoichiometry N: 2

B15: TRIM72 C242S (natural protein, human, UniProt Q6ZMU5-1 2-477, looked up)
chain: B3 chain with C241S, A271F
notes: as for B3
[4]
  binding result: binds

B16: TRIM72^ΔRING-B-box (122-477) (domain or fragment, human, UniProt Q6ZMU5-1 122-477, looked up)
chain: AAEAHARLKTQLPQQKLQLQEACMRKEKSVAVLEHQLVEVEETVRQFRGAVGEQLGKMRVFLAALEGSLDREAERVRGEAGVALRRELGSLNSYLEQLRQMEKVLEEVADKPQTEFLMKYCLVTSRLQKILAESPPPARLDIQLPIISDDFKFQVWRKMFRALMPALEELTFDPSSAHPSLVVSSSGRRVECSEQKAPPAGEDPRQFDKAVAVVAHQQLSEGEHYWEVDVGDKPRWALGVIAAEAPRRGRLHAVPSQGLWLLGLREGKILEAHVEAKEPRALRSPERRPTRIGLYLSFGDGVLSFYDASDADALVPLFAFHERLPRPVYPFFDVCWHDKGKNAQPLLLVGPEGAEA
notes: TRIM72, human, residues 122-477 (coiled-coil and SPRY); also called CC-SPRY; source: E. coli Rosetta (DE3), purified; not shown: His-Sumo, N-terminal, cleaved
[2]
  stoichiometry N: 2
